Measured values taken from PMC9584430, “ATP hydrolytic activity of purified Spf1p correlate with micellar lipid fluidity and is dependent on conserved residues in transmembrane helix M1” (PLoS ONE, 2022).

How the values were obtained:
Spf1p = target: T1, Spf1p (Saccharomyces cerevisiae, UniProt P39986); assay: ATPase assay, phosphate release (molybdate colorimetric); format: biochemical
T1 construct: gene SPF1; full length with C-terminal FLAG-RGS10His tag; expressed in spf1-deleted yeast (BY4741 background), purified, re-lipidated in mixed yeast polar lipid/detergent micelles; persistent dimer seen on SDS-PAGE
T1 sequence (P39986 1-1215): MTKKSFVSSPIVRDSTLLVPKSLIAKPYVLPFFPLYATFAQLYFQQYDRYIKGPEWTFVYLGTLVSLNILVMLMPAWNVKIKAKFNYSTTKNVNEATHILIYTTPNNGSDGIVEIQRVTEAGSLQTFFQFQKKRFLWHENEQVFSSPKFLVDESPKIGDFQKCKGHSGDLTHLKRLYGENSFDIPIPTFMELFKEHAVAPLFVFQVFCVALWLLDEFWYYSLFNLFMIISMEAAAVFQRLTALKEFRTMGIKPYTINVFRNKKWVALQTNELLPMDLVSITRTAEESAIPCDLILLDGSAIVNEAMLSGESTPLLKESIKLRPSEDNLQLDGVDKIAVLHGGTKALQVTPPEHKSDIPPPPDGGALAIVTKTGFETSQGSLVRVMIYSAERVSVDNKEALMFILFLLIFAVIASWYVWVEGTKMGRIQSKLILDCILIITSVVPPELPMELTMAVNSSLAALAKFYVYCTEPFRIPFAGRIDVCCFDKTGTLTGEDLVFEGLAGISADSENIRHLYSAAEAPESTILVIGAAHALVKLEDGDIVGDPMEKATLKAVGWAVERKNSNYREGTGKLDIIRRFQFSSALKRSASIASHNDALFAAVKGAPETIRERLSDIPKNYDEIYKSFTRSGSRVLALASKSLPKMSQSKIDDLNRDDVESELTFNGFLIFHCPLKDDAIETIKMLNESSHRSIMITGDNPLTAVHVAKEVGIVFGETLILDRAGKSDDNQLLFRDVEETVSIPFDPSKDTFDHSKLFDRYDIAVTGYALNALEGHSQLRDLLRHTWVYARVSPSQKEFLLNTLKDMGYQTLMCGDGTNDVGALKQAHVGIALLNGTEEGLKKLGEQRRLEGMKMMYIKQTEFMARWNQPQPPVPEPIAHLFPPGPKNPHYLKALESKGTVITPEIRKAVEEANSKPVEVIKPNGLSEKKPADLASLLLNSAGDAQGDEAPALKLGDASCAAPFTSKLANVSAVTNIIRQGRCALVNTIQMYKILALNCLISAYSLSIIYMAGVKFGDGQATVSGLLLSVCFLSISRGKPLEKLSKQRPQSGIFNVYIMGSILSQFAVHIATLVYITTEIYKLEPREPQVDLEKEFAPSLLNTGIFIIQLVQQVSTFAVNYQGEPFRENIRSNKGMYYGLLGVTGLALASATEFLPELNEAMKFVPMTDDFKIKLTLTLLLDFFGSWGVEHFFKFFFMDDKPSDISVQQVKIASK
Text: ATPase assay, phosphate release (molybdate colorimetric) on Spf1p | Vanadate sensitivity of Spf1p in mixed YPL/OG micelles

[1] = substrate: Nc1ncnc2c1ncn2[C@@H]1O[C@H](COP(=O)(O)OP(=O)(O)OP(=O)(O)O)[C@@H](O)[C@H]1O; assay: as above; format: biochemical, Saccharomyces cerevisiae; conditions: YPL/OG micelles (0.35% w/w OG); Mg2+; Michaelis-Menten fit
Text: ATPase assay, phosphate release (molybdate colorimetric) on Spf1p | ATP affinity of Spf1p in YPL/OG micelles

[2] = target: the molecule itself; assay: SDS-PAGE of the purified protein (band at twice the expected size); purified fractions run on SDS-PAGE gels, strongly denaturing conditions; bands of the full-length protein identified by mass spectrometry (S1 Fig)

Molecule	Ki (Spf1p)	Km [1]	binding result [2]
[O]=[V]([OH])([OH])[OH] [vanadate]	10.3 ± 0.747 µM		
Saccharomyces cerevisiae P5A ATPase Spf1p (enzyme, UniProt P39986 1-1215, looked up, Spf1p, P5A-type ATPase of the endoplasmic reticulum, Saccharomyces cerevisiae, full length; The abstract speaks of a purified 'functional tagged version'; removal of the tag is not mentioned; also called full length Spf1p; full-length expression construct (Spf1p); not shown: FLAG, C-terminal, kept; RGS10His, C-terminal, kept) MTKKSFVSSPIVRDSTLLVPKSLIAKPYVLPFFPLYATFAQLYFQQYDRYIKGPEWTFVYLGTLVSLNILVMLMPAWNVKIKAKFNYSTTKNVNEATHILIYTTPNNGSDGIVEIQRVTEAGSLQTFFQFQKKRFLWHENEQVFSSPKFLVDESPKIGDFQKCKGHSGDLTHLKRLYGENSFDIPIPTFMELFKEHAVAPLFVFQVFCVALWLLDEFWYYSLFNLFMIISMEAAAVFQRLTALKEFRTMGIKPYTINVFRNKKWVALQTNELLPMDLVSITRTAEESAIPCDLILLDGSAIVNEAMLSGESTPLLKESIKLRPSEDNLQLDGVDKIAVLHGGTKALQVTPPEHKSDIPPPPDGGALAIVTKTGFETSQGSLVRVMIYSAERVSVDNKEALMFILFLLIFAVIASWYVWVEGTKMGRIQSKLILDCILIITSVVPPELPMELTMAVNSSLAALAKFYVYCTEPFRIPFAGRIDVCCFDKTGTLTGEDLVFEGLAGISADSENIRHLYSAAEAPESTILVIGAAHALVKLEDGDIVGDPMEKATLKAVGWAVERKNSNYREGTGKLDIIRRFQFSSALKRSASIASHNDALFAAVKGAPETIRERLSDIPKNYDEIYKSFTRSGSRVLALASKSLPKMSQSKIDDLNRDDVESELTFNGFLIFHCPLKDDAIETIKMLNESSHRSIMITGDNPLTAVHVAKEVGIVFGETLILDRAGKSDDNQLLFRDVEETVSIPFDPSKDTFDHSKLFDRYDIAVTGYALNALEGHSQLRDLLRHTWVYARVSPSQKEFLLNTLKDMGYQTLMCGDGTNDVGALKQAHVGIALLNGTEEGLKKLGEQRRLEGMKMMYIKQTEFMARWNQPQPPVPEPIAHLFPPGPKNPHYLKALESKGTVITPEIRKAVEEANSKPVEVIKPNGLSEKKPADLASLLLNSAGDAQGDEAPALKLGDASCAAPFTSKLANVSAVTNIIRQGRCALVNTIQMYKILALNCLISAYSLSIIYMAGVKFGDGQATVSGLLLSVCFLSISRGKPLEKLSKQRPQSGIFNVYIMGSILSQFAVHIATLVYITTEIYKLEPREPQVDLEKEFAPSLLNTGIFIIQLVQQVSTFAVNYQGEPFRENIRSNKGMYYGLLGVTGLALASATEFLPELNEAMKFVPMTDDFKIKLTLTLLLDFFGSWGVEHFFKFFFMDDKPSDISVQQVKIASK		133.2 ± 18.9 µM	binds
